In paper PMC3160269:

Target: biotinylated soluble IA^b-p3K (mouse)
Assay: SPR

## soluble YAe62 TCR
  Kd: 9 µM
